From article doi:10.1101/2025.06.01.657267, “IFITM1 and IFITM3 cooperate to restrict virus entry in endolysosomes” (bioRxiv, 2025) come the findings set out here.

The assay addresses T1, FLAG-IFITM3 G95L (human, UniProt Q01628 1-133, G95L).
T1 construct: Interferon-induced transmembrane protein 3 (IFITM3), human, with G95L in the GxxxG motif of the CD225 domain; also called pQCXIP-FLAG-IFITM3 G95L; source: HEK293T, stably expressing pQCXIP-FLAG-IFITM3 G95L, in lysate; HEK293T, transiently transfected, in fixed cells
The experiment in a line: affinity purification with mass spectrometry; anti-FLAG (M2) immunoprecipitation from whole cell lysates (1% Triton X-100, 150 mM NaCl) of HEK293T stably expressing FLAG-IFITM3 WT, G95L or Empty Vector; TMT labelling, duplicate MS runs. To be noted: partners not purified.

T1 sequence (Q01628 whole entry G95L, the tested form may be a part): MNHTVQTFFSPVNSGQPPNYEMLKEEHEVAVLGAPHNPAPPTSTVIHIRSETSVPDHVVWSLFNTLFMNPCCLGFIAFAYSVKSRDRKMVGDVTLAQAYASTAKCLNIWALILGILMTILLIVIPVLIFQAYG

B1: endogenous IFITM1 (natural protein, UniProt P13164 1-125, looked up)
chain: MHKEEHEVAVLGPPPSTILPRSTVINIHSETSVPDHVVWSLFNTLFLNWCCLGFIAFAYSVKSRDRKMVGDVTGAQAYASTAKCLNIWALILGILMTIGFILLLVFGSVTVYHIMLQIIQEKRGY
notes: Interferon-induced transmembrane protein 1 (IFITM1), human, endogenous
As to B1, the “fold more IFITM1 pulled down by IFITM3 WT than by IFITM3 G95L” value is roughly 9 fold.
